Data published in paper PMC4601014 (Scientific Reports, 2015).

Target: His/S-ΔIBB importin-α1 (mouse, residues 70–529), wild-type (mouse, UniProt P52293 70-529)
Experiment: ELISA
Settings: both partners purified

B1: GST-NP ncNLS, wild-type (peptide)
chain: ASQGTKRSYEQMET
notes: also called GST-tagged ncNLS; not shown: GST, N-terminal, kept
Which Kd does the source give for B1 here?
Its Kd is 1700 nM.
